One test addresses HLA-A*26:02. In words: IEDB peptide-MHC binding, purified MHC/direct/fluorescence; filed as Kd, often an IC50 or EC50 that approximates it; ≥ and ≤ were set here for values at or beyond the usual limits of such assays. The following applies: source organism: Geobacillus sp. WCH70.
The target of the next test is HLA-A*26:03. Described as above. The following applies: source organism: Cryptosporidium parvum Iowa II.
The next test addresses HLA-B*15:01. The experiment in a line: IEDB peptide-MHC binding, purified MHC/competitive/fluorescence; filed as Kd, often an IC50 or EC50 that approximates it; ≥ and ≤ were set here for values at or beyond the usual limits of such assays. The note with it: source organism: Shigella flexneri 2a str. 301.
Another test concerns the target HLA-B*35:01. The test is described as above. The note with it: source organism: Shigella flexneri 2a str. 301.
Test [1] concerns the target HLA-B*07:02. The test is described as above.
For test [2], the target named is HLA-B*07:02. The experiment in a line: IEDB peptide-MHC binding, purified MHC/competitive/fluorescence; ≥ and ≤ were set here for values at or beyond the usual limits of such assays.
A further test addresses HLA-C*14:02. The experiment in a line: IEDB peptide-MHC binding, purified MHC/direct/fluorescence; filed as Kd, often an IC50 or EC50 that approximates it; ≥ and ≤ were set here for values at or beyond the usual limits of such assays. The following applies: source organism: Listeria monocytogenes EGD-e.
The next test deals with HLA-C*06:02. The description is as above. The following applies: source organism: Listeria monocytogenes EGD-e.
The target in the next test is HLA-C*15:02. Described as above. The following applies: source organism: Listeria monocytogenes EGD-e.
Another test deals with HLA-C*12:03. The description is as above.
The target of another test is HLA-B*48:01. In words: IEDB peptide-MHC binding, purified MHC/competitive/fluorescence; filed as Kd, often an IC50 or EC50 that approximates it; ≥ and ≤ were set here for values at or beyond the usual limits of such assays.
The next test concerns the target HLA-A*80:01. The experiment in a line: IEDB peptide-MHC binding, purified MHC/direct/fluorescence; filed as Kd, often an IC50 or EC50 that approximates it; ≥ and ≤ were set here for values at or beyond the usual limits of such assays.
Test [3] addresses HLA-A*01:01. The description is as above.
In test [4] the target is HLA-A*01:01. In words: IEDB peptide-MHC binding, purified MHC/competitive/fluorescence; ≥ and ≤ were set here for values at or beyond the usual limits of such assays.
The next test concerns the target HLA-A*03:01. The experiment in a line: IEDB peptide-MHC binding, purified MHC/competitive/fluorescence; filed as Kd, often an IC50 or EC50 that approximates it; ≥ and ≤ were set here for values at or beyond the usual limits of such assays. The note with it: source organism: Toxoplasma gondii.
For a further test, the target named is HLA-B*83:01. The description is as above. The following applies: source organism: Toxoplasma gondii.
For the next test, the target named is HLA-A*32:15. The description is as above. The following applies: source organism: Toxoplasma gondii.
Another test has as its target HLA-A*68:23. Described as above. The note with it: source organism: Toxoplasma gondii.
The target of another test is HLA-B*15:42. Described as above. The following applies: source organism: Toxoplasma gondii.
For the next test, the target named is HLA-B*45:06. Described as above. The following applies: source organism: Toxoplasma gondii.
For another test, the target named is HLA-B*57:01. The experiment in a line: IEDB peptide-MHC binding, purified MHC/competitive/radioactivity; filed as Kd, often an IC50 or EC50 that approximates it; ≥ and ≤ were set here for values at or beyond the usual limits of such assays. The following applies: source organism: Dengue virus 1 Brazil/97-11/1997.
The next test concerns the target HLA-C*03:03. In words: IEDB peptide-MHC binding, purified MHC/direct/fluorescence; filed as Kd, often an IC50 or EC50 that approximates it; ≥ and ≤ were set here for values at or beyond the usual limits of such assays.
Another test addresses HLA-A*02:03. The experiment in a line: IEDB peptide-MHC binding, purified MHC/competitive/radioactivity; filed as Kd, often an IC50 or EC50 that approximates it; ≥ and ≤ were set here for values at or beyond the usual limits of such assays. The note with it: source organism: Dengue virus 1 Brazil/97-11/1997.
The target in a further test is HLA-A*24:02. The test is described as above. The following applies: source organism: Dengue virus 1 Brazil/97-11/1997.
The target in another test is HLA-A*02:17. Described as above. The following applies: source organism: Dengue virus 1 Singapore/S275/1990.
In a further test the target is HLA-A*02:12. In words: IEDB peptide-MHC binding, purified MHC/direct/fluorescence; filed as Kd, often an IC50 or EC50 that approximates it; ≥ and ≤ were set here for values at or beyond the usual limits of such assays. The following applies: source organism: dengue virus type 1.
The target of the next test is HLA-A*02:11. The test is described as above. The note with it: source organism: dengue virus type 1.
Another test deals with HLA-C*08:02. Described as above.
Another test deals with HLA-A*02:19. The description is as above. The note with it: source organism: dengue virus type 1.
The next test has as its target HLA-C*07:02. The description is as above. The note with it: source organism: Mycobacterium tuberculosis str. Haarlem.
[5] abbreviates: source organism: Zaire ebolavirus.
[6] abbreviates: source organism: Listeria monocytogenes EGD-e.
[7] abbreviates: source organism: West Nile virus.
Setting [8] is: source organism: Vibrio parahaemolyticus.
Where [9] appears, read: source organism: dengue virus type 1.
Where [10] appears, read: source organism: Cryptosporidium parvum Iowa II.
Setting [11] is: source organism: Mycobacterium tuberculosis str. Haarlem.

One may read the Kd as the concentration at which binding is half-saturated. In general, IC50 refers to the concentration that gives 50% inhibition. Higher therefore signals lower potency.

FTWPWMKLF showed a Kd in the test with HLA-A*26:02 of 469 nM.
Take ETRYSWAIL: the Kd in the test with HLA-A*26:03 was found to be 454 nM.
Consider KPVGWAMSF, for which the dissociation constant (Kd) with HLA-B*15:01 worked out at 4000 nM; in the test with HLA-B*35:01, 0.4 nM; with HLA-B*07:02 [1] (source organism: Shigella flexneri 2a str. 301), 11.9 nM.
APDGIRGFP gave an IC50 with HLA-B*07:02 [2] (setting [5]) of 23400 nM.
MPRQKIIGPL gave a Kd with HLA-B*07:02 [1] (source organism: Influenza A virus (A/Swine/Colorado/23619/99(H3N2))) of 6.6 nM.
Regarding RMMGKTNPL, the Kd was at most 1 nM in the test with HLA-C*14:02; at least 20000 nM with HLA-C*06:02; 16 nM in the test with HLA-C*15:02; 156 nM with HLA-C*12:03 (setting [6]); 97.4 nM with HLA-B*48:01 (setting [6]).
As for MSPHRVPNY, the Kd in the test with HLA-A*80:01 (setting [7]) and with HLA-A*01:01 [3] (setting [7]) was at least 20000 nM in each case.
Turning to RGDLETLGY, the half-maximal inhibitory concentration (IC50) in the test with HLA-A*01:01 [4] (source organism: Vaccinia virus WR) was 9250 nM.
Take MTPGRGLSK: the Kd with HLA-A*80:01 (setting [8]) and with HLA-A*01:01 [3] (setting [8]) was at least 20000 nM throughout.
For PDDGSYGEY, the half-inhibitory concentration (IC50) in the test with HLA-A*01:01 [4] (setting [5]) is at least 277000 nM.
As for MTMLIKAFK, the dissociation constant (Kd) with HLA-A*03:01 was 7.7 nM; in the test with HLA-B*83:01 it was at least 5000 nM; in the test with HLA-A*32:15, 194 nM; with HLA-A*68:23 it was 4.5 nM; in the test with HLA-B*15:42 it was at least 5000 nM; with HLA-B*45:06, at least 5000 nM.
GPCPGDYAF: the half-inhibitory concentration (IC50) with HLA-B*07:02 [2] (source organism: Sudan ebolavirus) was at least 722000 nM.
For the sequence ESDPEGALW, the values for the Kd with HLA-B*57:01 and with HLA-A*80:01 (setting [9]) were 391 nM and at least 20000 nM, respectively.
For TSDGKEYTY, the IC50 with HLA-A*01:01 [4] (setting [5]) was 3450 nM.
Take WMYNIQPYL: the values for the Kd in the test with HLA-C*03:03 (setting [10]), in the test with HLA-C*12:03 (setting [10]) and with HLA-B*48:01 (setting [10]) were 83 nM, 454 nM and 34.7 nM, respectively.
Take YMPSVVETL: the Kd is 15 nM with HLA-A*02:03; 1010 nM in the test with HLA-A*24:02; 14.6 nM with HLA-A*02:17; 9 nM in the test with HLA-A*02:12; at most 1 nM with HLA-A*02:11; at least 20000 nM with HLA-C*08:02 (setting [9]). The dissociation constant (Kd) with HLA-A*02:19 was 36 nM.
For YVYPDNLPV, the dissociation constant (Kd) in the test with HLA-C*03:03 (setting [11]) came out at 2 nM; with HLA-C*08:02 (setting [11]) it was 78 nM; with HLA-C*07:02, 2170 nM.

These data come from the Immune Epitope Database (IEDB).
